In data set [1] the target is T1, AcFur SII E106A;H123A (Acidithiobacillus caldus MTH-04) (UniProt A0A060A2G1).
T1 sequence: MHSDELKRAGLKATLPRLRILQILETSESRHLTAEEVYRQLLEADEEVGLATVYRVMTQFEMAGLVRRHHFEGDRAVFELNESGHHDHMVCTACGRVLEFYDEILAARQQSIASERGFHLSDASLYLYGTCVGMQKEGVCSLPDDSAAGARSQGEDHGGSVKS
Nature of the data set: EMSA. Particulars: EMSA: 0.4 nM DNA, 0/2/4/8 nM protein, 10 mM Tris-HCl pH 8.0, 100 mM NaCl, 1 mM MnCl2, room temperature, 30 min; 5% native PAGE in 0.5x TBE, EB stain. In general terms: A gel shift assay detects complexes by their altered migration in electrophoresis.

The target of data set [2] is T2, AcFur SI H31A;H88A (Acidithiobacillus caldus MTH-04) (UniProt A0A060A2G1).
T2 sequence: T1 sequence with H31A, H88A, A106E, A123H
Nature of the data set: EMSA. The settings on record: EMSA: 0.4 nM DNA, 0/2/4/8 nM protein, 10 mM Tris-HCl pH 8.0, 100 mM NaCl, 1 mM MnCl2, room temperature, 30 min; 5% native PAGE in 0.5x TBE, EB stain.

This passage reports binding results from PMC7237784.

Residue numbers refer to the chain shown, from its start.

Take “GCGTAGGACGTCCTTGATAACTGCAACTAAGTTGCATATATTCCGCACGACCACTCCGCGCGTCCCTGGGGAGCTTGACCGGTAAGTCTATTTATTGAATGATAATGATTAGCATTTATATTATTTGGAGAGATTGTCCATGCGTCGTATACCCCTCTGTGCGCTGCTGAGCACCATGCTTGCTTCCAGC (double strand) [feoP promoter]”: the results for the binding result in data set [1] and in data set [2] were “binds more weakly” and “no binding”, respectively.
The like results for “TTCCACCTGCTCACCTGCGCGGGCCGAGCTCAGGCGGTGGGGGGAAAGGACTTGGGTCATGACGCTCACACTCCCAACGAGTTCGTGGGGACACTATATCATAATGGTAATCATTTGCAATATCAGCCCAAGGGAGGGCCGTCCCGGCGGACGCAGCCGCCGACGCTCAGTCCAGGTCGCCGTGCCTGGGTGTAAAACGC (double strand) [feoABC operator (feoA promoter)]” were, in that order, “binds more weakly” and “no binding”.
